B1: S4 IgG (full-length human IgG1; LPG3-humankappaG6 and LPG4-humanHC-S4), expressed in CHO cells (antibody)
light: DIQMTQSPSSLSASVGDRVTITCRASQDVSTAVAWYQQKPGKAPKLLIYSASFLYSGVPSRFSGSGSGTDFTLTISSLQPEDFATYYCQQSYTTPPTFGQGTKVEIKRTVAAPSVFIFPPSDEQLKSGTASVVCLLNNFYPREAKVQWKVDNALQSGNSQESVTEQDSKDSTYSLSSTLTLSKADYEKHKVYACEVTHQGLSSPVTKSFNRGEC
heavy: not shown
B2: S7 IgG (full-length human IgG1; LPG3-humankappaG6 and LPG4-humanHC-S7), expressed in CHO cells (antibody, V domains shown)
VH: EVQLVESGGGLVQPGGSLRLSCAASGFTISGSDIHWVRQAPGKGLEWVGRISPYGGNTNYADSVKGRFTISADTSKNTAYLQMNSLRAEDTAVYYCARVGGLKLLFDYWGQGTLVTVSS
VL: DIQMTQSPSSLSASVGDRVTITCRASQDVSTAVAWYQQKPGKAPKLLIYSASFLYSGVPSRFSGSGSGTDFTLTISSLQPEDFATYYCQQSYTTPPTFGQGTKVEIKR
B3: S4 Fab (antibody)
chain 1: MKKNIAFLLASMFVFSIATNAYADIQMTQSPSSLSASVGDRVTITCRASQDVSTAVAWYQQKPGKAPKLLIYSASFLYSGVPSRFSGSGSGTDFTLTISSLQPEDFATYYCQQSYTTPPTFGQGTKVEIKRTVAAPSVFIFPPSDEQLKSGTASVVCLLNNFYPREAKVQWKVDNALQSGNSQESVTEQDSKDSTYSLSSTLTLSKADYEKHKVYACEVTHQGLSSPVTKSFNRGECGASSGMADPNRFRGKDLA
chain 2: MKKNIAFLLASMFVFSIATNAYAEVQLVESGGGLVQPGGSLRLSCAASGFTISGSWIHWVRQAPGKGLEWVAWIAPYSGATDYADSVKGRFTISADTSKNTAYLQMNSLRAEDTAVYYCAREGGLYWVFDYWGQGTLVTVSSASTKGPSVFPLAPSSKSTSGGTAALGCLVKDYFPEPVTVSWNSGALTSGVHTFPAVLQSSGLYSLSSVVTVPSSSLGTQTYICNVNHKPSNTKVDKKVEPKSCDKTHL

Key:
[1] = molecular target: T1, human STOP-1 short form (L94-K243) with C-terminal His tag, baculovirus expressed (UniProt Q96CG8 94-243); assay: competitive ELISA; S/S: coated short form, competed short form
T1 sequence (Q96CG8 94-243): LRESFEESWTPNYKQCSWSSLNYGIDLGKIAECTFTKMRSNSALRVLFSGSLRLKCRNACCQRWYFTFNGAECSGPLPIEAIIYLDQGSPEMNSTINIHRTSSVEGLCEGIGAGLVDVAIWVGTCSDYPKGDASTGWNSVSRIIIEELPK

[2] = molecular target: T2, human STOP-1, full length, C-terminal 8xHis tag (h762HIP; M1-K243-His), expressed in CHO-psgb cells (UniProt Q96CG8 31-243); assay: competitive ELISA
T2 sequence (Q96CG8 other isoform, or with tags, fused parts or gaps): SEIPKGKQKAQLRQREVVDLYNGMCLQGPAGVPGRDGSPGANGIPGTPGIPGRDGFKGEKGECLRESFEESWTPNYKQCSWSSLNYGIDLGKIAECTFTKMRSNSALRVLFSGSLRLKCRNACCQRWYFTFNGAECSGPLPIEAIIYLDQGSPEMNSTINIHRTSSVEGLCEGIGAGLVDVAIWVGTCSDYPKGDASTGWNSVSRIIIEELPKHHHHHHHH

[3] = molecular target: T1, human STOP-1 short form (L94-K243) with …; assay: competitive ELISA
[4] = molecular target: T2, human STOP-1, full length, C-terminal …; assay: competitive ELISA; F/F: coated full length, competed full length

Binder | Kd [1] | Kd [2] | Kd [3] | Kd [4]
B1 | 0.5 nM | 3 nM | 0.5 nM | 3.1 nM
B2 | 7.3 nM | 41 nM | 7.3 nM | 41 nM
B3 |  | 13 nM | 1.9 nM | 13.4 nM
